{"source": "paper PMC3240612", "about": "“Quantitative Multicolor Super-Resolution Microscopy Reveals Tetherin HIV-1 Interaction” (PLoS Pathogens, 2011)", "binders": {"B1": {"name": "N-terminal fragment of HA-tetherin left inside virions after subtilisin A treatment (domain or fragment, human, UniProt Q10589 1-67, looked up)", "chain": "MASTSYDYCRVPMEDGDKRCKLLLGIGILVLLIIVILGVPLIIFTIKANSEACRDGLRAVMECRNVT", "notes": "tetherin (CD317, BST-2, HM1.24), human, Swiss-Prot Q10589; N-terminal fragment left after subtilisin A cleavage; Disulfide-linked dimer: ~26 kDa without βME, ~13 kDa with βME; also called dimeric N-termini; HA fragment of ~26 kDa (non-reducing), ~13 kDa (reducing); source: 293T, transfected with HIV-1 Δvpu and HA-tetherin; cells treated with subtilisin A; released virions pelleted through sucrose …"}, "B2": {"name": "HA-tetherin (N-terminal HA-tagged tetherin), in virions released by PI-PLC, Q10589 1-161 (natural protein)", "chain": "MASTSYDYCRVPMEDGDKRCKLLLGIGILVLLIIVILGVPLIIFTIKANSEACRDGLRAVMECRNVTHLLQQELTEAQKGFQDVEAQAATCNHTVMALMASLDAEKAQGQKKVEELEGEITTLNHKLQDASAEVERLRRENQVLSVRIADKKYYPSSQDSS", "modifications": "here or on the partner: C-terminal GPI anchor, cut by PI-PLC; C-terminal GPI anchor, cut by PI-PLC"}, "B3": {"name": "tetherin-HA (HA tag inserted after the extracellular coiled-coil domain), in virions released by PI-PLC, Q10589 1-161 (natural protein)", "chain": "MASTSYDYCRVPMEDGDKRCKLLLGIGILVLLIIVILGVPLIIFTIKANSEACRDGLRAVMECRNVTHLLQQELTEAQKGFQDVEAQAATCNHTVMALMASLDAEKAQGQKKVEELEGEITTLNHKLQDASAEVERLRRENQVLSVRIADKKYYPSSQDSS", "modifications": "here or on the partner: C-terminal GPI anchor, cut by PI-PLC; C-terminal GPI anchor, cut by PI-PLC"}}, "key": {"[1]": {"target": "the molecule itself", "assay": "non-reducing against reducing SDS-PAGE with Western blot; virions stripped from 293T cells by subtilisin A (0, 5 or 50 µg/ML), pelleted through sucrose, lysed in RIPA; anti-HA blot without βME and with βME"}, "[2]": {"target": "T1, HA-tetherin (N-terminal HA-tagged tetherin), in virions released by PI-PLC (human), Q10589", "T1 chain": "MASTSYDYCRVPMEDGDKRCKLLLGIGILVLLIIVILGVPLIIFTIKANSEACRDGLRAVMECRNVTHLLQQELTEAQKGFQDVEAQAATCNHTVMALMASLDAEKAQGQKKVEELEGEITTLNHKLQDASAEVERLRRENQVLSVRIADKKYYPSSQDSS", "details": "remark: other sources report otherwise"}, "[3]": {"target": "T2, tetherin-HA (HA tag inserted after the extracellular coiled-coil domain), in virions released by PI-PLC (human), Q10589", "T2 chain": "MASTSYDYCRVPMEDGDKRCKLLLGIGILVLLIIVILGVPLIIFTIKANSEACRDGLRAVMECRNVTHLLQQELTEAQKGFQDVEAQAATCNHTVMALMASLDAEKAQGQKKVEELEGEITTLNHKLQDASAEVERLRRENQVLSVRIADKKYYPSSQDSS", "details": "remark: other sources report otherwise"}}}
{"binder": "B1", "values": [{"measurement": "stoichiometry N", "setting": "[1]", "value": 2}]}
{"binder": "B2", "values": [{"measurement": "stoichiometry N", "setting": "[2]", "value": 2}]}
{"binder": "B3", "values": [{"measurement": "stoichiometry N", "setting": "[3]", "value": 2}]}
